# Experimental data as given in the supplement of paper PMC9112550, “Optimization of the antimicrobial peptide Bac7 by deep mutational scanning” (BMC Biology, 2022).
# Tested on: Escherichia coli TOP10
# Test: shrunken log2 fold change of peptide-encoding DNA abundance (4.5 h post-induction vs induction); higher = less antimicrobial activity (less host growth inhibition)
# Conditions: time post-induction: 4.5 h; library: site-saturation at positions 5, 18, 19, 20
# 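Also: peptides expressed intracellularly from a pBAD plasmid library in pooled LB shake-flask culture, induced with 0.3% L-arabinose, DNA abundance read by NGS, three biological replicates, DESeq2 with apeglm shrinkage.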
row,Sequence,shrunken log2 fold change
1,RRIRSRPPRLPRPRPRPMGSPRP,-0.205
2,RRIRIRPPRLPRPRPRPFFVPRP,-0.294
3,RRIRQRPPRLPRPRPRPMRDPRP,0.0311
4,RRIRCRPPRLPRPRPRPTMEPRP,-0.088
5,RRIRDRPPRLPRPRPRPMLTPRP,0.155
6,RRIRYRPPRLPRPRPRPVRLPRP,-0.0236
7,RRIRSRPPRLPRPRPRPDYHPRP,-0.271
8,RRIRLRPPRLPRPRPRPGDLPRP,0.00844
9,RRIRMRPPRLPRPRPRPKQGPRP,-0.000896
10,RRIRARPPRLPRPRPRPSFNPRP,-0.268
11,RRIRMRPPRLPRPRPRPRWCPRP,0.273
12,RRIRMRPPRLPRPRPRPMCQPRP,0.00866
13,RRIRYRPPRLPRPRPRPRNDPRP,-0.205
14,RRIRERPPRLPRPRPRPGWMPRP,0.144
15,RRIRARPPRLPRPRPRPVKSPRP,0.19
16,RRIRHRPPRLPRPRPRPYKMPRP,-0.226
17,RRIRMRPPRLPRPRPRPQKPPRP,-0.165
18,RRIRWRPPRLPRPRPRPVFHPRP,0.379
19,RRIRVRPPRLPRPRPRPVPPPRP,0.27
20,RRIRDRPPRLPRPRPRPDDSPRP,-0.0417
21,RRIRSRPPRLPRPRPRPMDLPRP,0.0372
22,RRIRQRPPRLPRPRPRPNMMPRP,-0.442
23,RRIRERPPRLPRPRPRPYIPPRP,-0.416
24,RRIRVRPPRLPRPRPRPADRPRP,0.194
25,RRIRDRPPRLPRPRPRPFPQPRP,0.0191

row,Sequence,shrunken log2 fold change
1,RRIRFRPPRLPRPRPRPNLSPRP,-0.259
2,RRIRRRPPRLPRPRPRPSYDPRP,-0.434
3,RRIRPRPPRLPRPRPRPNRTPRP,-0.0847
4,RRIRWRPPRLPRPRPRPKLRPRP,0.132
5,RRIRDRPPRLPRPRPRPTQNPRP,0.789
6,RRIRNRPPRLPRPRPRPAIEPRP,0.00973
7,RRIRLRPPRLPRPRPRPAQPPRP,0.0855
8,RRIRGRPPRLPRPRPRPWWLPRP,0.0131
9,RRIRGRPPRLPRPRPRPKPSPRP,1.1
10,RRIRRRPPRLPRPRPRPDCHPRP,0.619
11,RRIRERPPRLPRPRPRPEKSPRP,-0.14
12,RRIRERPPRLPRPRPRPFHGPRP,-0.0459
13,RRIRARPPRLPRPRPRPQHIPRP,-0.0675
14,RRIRARPPRLPRPRPRPGDFPRP,0.383
15,RRIRHRPPRLPRPRPRPKGIPRP,-0.092
16,RRIRNRPPRLPRPRPRPVHNPRP,-0.289
17,RRIRSRPPRLPRPRPRPMWFPRP,0.14
18,RRIRCRPPRLPRPRPRPLMTPRP,-0.0133
19,RRIRDRPPRLPRPRPRPEFYPRP,0.475
20,RRIRHRPPRLPRPRPRPHIKPRP,-0.83
21,RRIRERPPRLPRPRPRPVRVPRP,0.247
22,RRIRARPPRLPRPRPRPQRLPRP,0.247
23,RRIRKRPPRLPRPRPRPSSNPRP,-0.0818
24,RRIRIRPPRLPRPRPRPSQVPRP,-0.186
25,RRIRYRPPRLPRPRPRPTIIPRP,-0.669

row,Sequence,shrunken log2 fold change
1,RRIRMRPPRLPRPRPRPQFQPRP,-0.165
2,RRIRTRPPRLPRPRPRPHYLPRP,-0.194
3,RRIRHRPPRLPRPRPRPTQAPRP,0.255
4,RRIRQRPPRLPRPRPRPRMQPRP,-0.0113
5,RRIRARPPRLPRPRPRPRALPRP,0.482
6,RRIRKRPPRLPRPRPRPAWGPRP,0.694
7,RRIRRRPPRLPRPRPRPRPTPRP,0.821
8,RRIRDRPPRLPRPRPRPAKTPRP,0.152
9,RRIRQRPPRLPRPRPRPYKPPRP,0.0291
10,RRIRRRPPRLPRPRPRPMAQPRP,0.318
11,RRIRNRPPRLPRPRPRPGAAPRP,0.417
12,RRIRDRPPRLPRPRPRPEQCPRP,-0.00146
13,RRIRPRPPRLPRPRPRPNQLPRP,-0.258
14,RRIRGRPPRLPRPRPRPMPWPRP,0.25
15,RRIRYRPPRLPRPRPRPNEDPRP,-0.246
16,RRIRQRPPRLPRPRPRPMVFPRP,0.111
17,RRIRDRPPRLPRPRPRPKVPPRP,-0.00145
18,RRIRGRPPRLPRPRPRPEMPPRP,1.48
19,RRIRFRPPRLPRPRPRPIWWPRP,0.617
20,RRIRDRPPRLPRPRPRPYFHPRP,-0.678
21,RRIRPRPPRLPRPRPRPDPWPRP,-0.0279
22,RRIRMRPPRLPRPRPRPLRTPRP,3.45
23,RRIRARPPRLPRPRPRPITNPRP,-0.54
24,RRIRSRPPRLPRPRPRPPKRPRP,0.626
25,RRIRCRPPRLPRPRPRPLMEPRP,-0.0946
